Experimental findings from paper PMC2946933 are described below.

This data set concerns the target Hfq K56A K56A (UniProt P0A6X3). Nature of the data set: SPR. As to conditions: EMSA: 50 mM Tris-HCl pH 7.5, 100 mM KCl, 10 mM MgCl2, room temperature, SPR: same buffer, 25 C, Tb footprinting: 50 mM Tris-HCl pH 8.0, 100 mM NaCl.

What is called Kd is the equilibrium constant for the complex coming apart. Lower therefore signals tighter binding. “GCAGCGUUACAUUCCCAUCCACUGGGGAAAGACGCGGCGCUGAUUGGUGAAGUGGUGGAACGUAAAGGUGUUCGUCUUGCCGGUCUGUAUGGCGUGAAACGAACCCUCGAUUUACCACACGCCGAACCGCUUCCGCGUAUAUGCUAAUAAAAUUCUAAAUCUCCUAUAGUUAGUCAAUGACCUUUUGCACCGCUUUGCGGUGCUUUCCUGGAAGAACAAAAUGUCAUAUACACCGAUGAGUGAUCUCGGACAACAAGGGUUGUUCGACAUCACUCGGACAAAUAUUGGAUCCGCUCGG [fhlA220 mRNA]”: the Kd came out at 3 nM.
